US20260008856A1, “METHODS OF TREATING DISEASE USING ANTI-IL1RAP ANTIBODIES AND ANTIBODY DRUG CONJUGATES” (Bluefin Biomedicine, Inc., priority 2022, published 2026)

Legend:
recombinant human IL1RAP = target: T1, recombinant human IL1RAP (Homo sapiens, UniProt Q9NPH3); assay: Binding competition binning on Octet; conditions: Protein A biosensors
T1 construct: MBP-IL1RAP(S21-T367)-; 8xHis (C); made in house; host or cells: CHO (ExpiCHO transient expression)
Method in brief: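 Protein A biosensors loaded with first antibody (10 ug/mL, 5 min), blocked with irrelevant antibody (100 ug/mL, 5 min). Then exposed to recombinant human IL1RAP (1 min) and a second antibody (1 min). Octet interferometry signal increase indicates non-competing pairs; antibodies assigned to bins.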

[1] = system: normal human dermal fibroblasts (NHDF); assay: IL-6 and IL-8 production in NHDF stimulated with cytokine combo incl. IL-17A; type: cell-based; conditions: cytokine combo IL-1α/β, IL-36α/β/γ, antibodies 0-20 ug/ml, BFB759 0.5 ug/ml in combination
Procedure: Human NHDF cells were plated on 96-well, flat-bottom plates at 4,000 cells/well. […] For combination therapy, 0.5 ug/ml BFB759 was mixed with Secukinumab or Isotype control antibody at increasing concentrations (0-20 ug/ml, 5-fold dilution) and incubated with cells in duplicate for 45 minutes, prior to the addition of cytokine combo. The plates were then incubated overnight at 37° C., 5% CO2. 24 hours after treatment, supernatants were transferred and assayed for IL-6 and IL-8, as per manufacture's protocol (R&D Systems; Human IL-6 DuoSet ELISA, Human IL-8/CXCL8 DuoSet ELISA). The raw assay data were analyzed using GraphPad Prism 9 software to perform a non-linear regression.

IL-33 signaling = IL-33 signaling reporter cell assay (HEK-Blue IL-33 cells); type: cell-based; conditions: antibody 1-10 μg/ml, IL-33 0.5 ng/ml
Procedure: FIGS. 7A and 7B show blockage of IL-33 signaling by anti-IL1RAP antibodies. HEK-Blue IL-33 cells (Invivogen, CA) were harvested and plated in technical duplicates at a density of 50,000 cells per well in a 96-well plate. Antibodies, or a corresponding human IgG1 control antibody, was added to the wells in a serial dilution starting at 10 μg/ml (FIG. 7A), or a concentration of 1 and 10 μg/ml (FIG. 7B). After incubating cells with antibodies for 30 minutes, IL-33 was added to a final concentration of 0.5 ng/ml, and the plate was incubated overnight. 24 hours later, substrate was added to the supernatants, and samples were analyzed for absorbance at 620 nm. CBIgG1 (anti-hen egg lysozyme antibody, CrownBio™) was included as a negative control.
HEK-Blue IL-33 cells (Invivogen, CA) were harvested and plated in technical duplicates at a density of 50,000 cells per well in a 96-well plate. antibodies, or a corresponding human IgG1 control antibody was added to the wells in a concentration range of […]. After incubating cells with antibodies for 30 minutes, IL-33 was added to a final concentration of 0.5 ng/ml, and the plate was incubated overnight. To examine whether any of the antibodies were able to induce ST2 activation in the absence of IL-33, samples were incubated with 10 μg/mL antibody without addition of the ligand. The following day, substrate was added to the supernatants, and samples were analyzed for absorbance at 620 nm.

[2] = system: TARC production in HDM stimulated human PBMCs; assay: TARC production in HDM stimulated human PBMCs; type: cell-based; conditions: antibodies 30 ug/ml, HDM 10 ug/ml
Text: Materials included Human peripheral blood mononuclear cells (PBMCs) that were isolated from healthy donor blood and either frozen in liquid nitrogen and thawed prior to analysis or used fresh. Materials also included HDM (house dust mite extract) that was from Greer lab and purchased through Fisher Scientific (NC9756554, Lot #390844). Additionally, Human IL-4 (204-IL-010) was purchased from R&D Systems; Human IL-13 (200-13) was purchased from Peprotech; JAK inhibitors (JAKi) Abrocitinib (HY-107429) and Upadacitinib (HY-19569) were purchased from MedChemExpress; Dexamethasone (D4902) was purchased from Sigma-Aldrich; Dupilumab (HY-P9926) was purchased from MedChemExpress; Tralokinumab was produced by Bluefin Biomedicine according to the published protein sequence; and TARC ELISA kits (DuoSet Cat #DY364, Quantikine Cat #SDN00) were purchased from R&D Systems.
Blood was drawn in heparin tubes from healthy volunteers. PBMCs were isolated by centrifugation of the blood over Ficoll-Paque Plus density gradients using LeucoSep tubes.
0.2 million PBMCs in 100 ul medium (RPMI1640, 10% heat-inactivated FBS) were added to each well of 96 well cell culture plate. BFB759 at multiple concentrations in 50 ul medium was added to the wells. The cells were incubated in the incubator for 45 min. Then, 50 ul HDM solution (final concentration 10 ug/ml) was added to the wells. […]

EOL-1 = assay: Flow cytometry binding to endogenous cell line EOL-1; type: cell-based, human; design: key to binding to EOL-1 by flow cytometry: (−): No binding; (+): Weak binding; (++): Moderate binding; (+++): Strong binding; conditions: primary antibody 1 ug/ml
Method in brief: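 Live cells stained on ice for 30 minutes with primary antibody at 1 ug/ml in cold PBS/0.5% BSA, then washed and detected with Alexa Fluor 488 anti-human IgG (1:1000). Binding read by flow cytometry on endogenous IL1RAP-positive lines.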

B1: 37E10_15B5: human anti-IL1RAP antibody BFB759 (i.e., 37E10_15B5), VH SEQ ID NO: 64, VL SEQ ID NO: 68 (antibody, V domains shown)
VH: QVQLVESGGGVVQPGRSLRLSCAASGFTFRSHGMHWVRQAPGKGLEWVAVIWYDGSSEYYADSVKGRFTISRDNSKNTLYLQMNSLRAEDTAVYYCARENVYGSGWFFDYWGQGTLVTVSS
VL: EIVMTQSPATLSVSPGERASLSCRASQSVGSNLAWYQQRPGQAPRLLIFGASTRATGIPARFSGSRSGTEFTLTISSLQSEDFALYYCQQYNNWPPWTFGQGTKLEIK
Recombinant human IL1RAP
  competition for binding, bin (2): competed with each other
[1]
  IL-6 production: dose-dependent decrease
  IL-8 production: dose-dependent decrease
IL-33 signaling
  inhibition of IL-33 signaling: partially inhibit
[2]
  inhibition of HDM induced TARC level, FIG. 13: inhibits
EOL-1
  binding to EOL-1 by flow cytometry: (+++)
